Assays:
Assay in all cases: HPLC of UDP release, initial rates, Michaelis-Menten fit
Format in all cases: biochemical, Citrus japonica
Settings in all cases: 1.0 mM phloretin as acceptor, pH 8.0, 30 °C, donor 20-800 µM
[1] = substrate: O=c1ccn([C@@H]2O[C@H](COP(=O)(O)OP(=O)(O)O[C@H]3O[C@H](CO)[C@H](O)[C@H](O)[C@H]3O)[C@@H](O)[C@H]2O)c(=O)[nH]1
[2] = substrate: O=c1ccn([C@@H]2O[C@H](COP(=O)(O)OP(=O)(O)O[C@H]3OC[C@@H](O)[C@H](O)[C@H]3O)[C@@H](O)[C@H]2O)c(=O)[nH]1
[3] = substrate: O=c1ccn([C@@H]2O[C@H](CO[P@@](=O)(O)O[P@@](=O)(O)O[C@H]3O[C@H](CO)[C@@H](O)[C@H](O)[C@H]3O)[C@@H](O)[C@H]2O)c(=O)[nH]1

B1: FcCGT (Citrus japonica) (protein)
chain: MSDSGGFDSHPHVALIPSAGMGHLTPFLRLAASLVQHHCRVTLITTYPTVSLAETQHVSHFLSAYPQVTEKRFHLLPFDPNSANATDPFFLRWEAIRRSAHLLAPLLSPPLSALITDVTLISAVLPVTINLHLPNYVLFTASARMFSLTASFPAIVASKSTSSGSVEFDDDFIEIPGLPPIPLSSVPPAVMDSKSLFATSFLENGNSFVKSNGVLINSFDALEADTLVALNGRRVVAGLPPVYAVGPLLPCEFEKRDDPSTSLILKWLDDQPEGSVVYVSFGSRLALSMEQTKELGNGLLSSGCRFLWVVKGKTVDKEDEESLKNVLGHELMEKIKDQGLVVKNWVDQDKVLSHRAVGGFVSHGGWNSLVEAARHGVPVLVWPQFGDQKINAEAVESAGLGMWVRSWGWGTELRAKGDEIGLKIKDLMANDFLREQAKRIEEEARKAIGVGGSSERTFKELIDKWKCNNNTH
notes: recombinant purified; polypeptide Mr 53600; construct details in supplement and Li et al. 2023
Km [1]: 432 ± 26 µM
kcat [1]: 0.28 ± 0.01 min–1
Km [2]: 122 ± 11 µM
kcat [2]: 15 ± 0.8 min–1
Km [3]: 55 ± 2.4 µM
kcat [3]: 139 ± 2.5 min–1

Reference: PMC11975207, “One‐Pot Hetero‐Di‐C‐Glycosylation of the Natural Polyphenol Phloretin by a Single C‐Glycosyltransferase With Broad Sugar Substrate Specificity” (Biotechnology and Bioengineering, 2025)
